Among the data in PMC5658772 (2017) are koff values, retold here.

The target of the experiment is T1, ZIKV envelope protein domain III-hFc fusion protein (ZIKV-DIII-hFc) (Zika virus strain MR766, UniProt Q32ZE1).
T1 chain: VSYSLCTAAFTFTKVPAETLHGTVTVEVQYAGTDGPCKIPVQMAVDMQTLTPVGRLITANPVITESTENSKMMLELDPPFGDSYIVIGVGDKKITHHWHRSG
Description: BLI.

B1: m302 IgG1 (antibody, V domains shown)
VH: EVQLVQSGGGLVKPGRSLRLSCAASGFTFSSYAMHWVRQAPGKGLEWVAVISYDGSNKYYADSVKGRFTISRDNSKNTLYLQMNSLRAEDTAVYYCAREIGDYYYYGMDVWGQGTLVTVSS
VL: EIVMTQSPATLSLSPGERATLSCRASQSVSSYLAWYQQKPGQAPRLLIYDASNRATGIPARFSGSGSGTDFTLTISSLQPEDFATYYCQQSYSTPLTFGGGTKVEIK
Turning to B1, the koff came to 0.00177 s⁻¹.
